Paper PMC11323535, “Neisserial adhesin A (NadA) binds human Siglec-5 and Siglec-14 with high affinity and promotes bacterial adhesion/invasion” (mBio, 2024)

Target: T1, recombinant soluble NadA (NadA_(24–350)) (Neisseria meningitidis strain 2996, UniProt Q8KH85 24-350)
T1 construct: Neisserial adhesin A (NadA) variant 3, N. meningitidis strain 2996, residues 24-350: ectodomain without the leader peptide and the anchor domain; Heated at 80°C for 2 h (thermally stressed, monomeric) in one SPR experiment; also called rNadA; NadA ectodomain
Assay: peptide or protein array; recombinant soluble human and mouse proteins spotted; rNadA_(24–350) 1 µM in Nap-PBS overlaid for 1 h; rabbit anti-NadA serum and AlexaFluor 647 anti-rabbit IgG; MFI ≥ 30,000 high reactivity, MFI < 5,000 no reactivity
Settings: both partners purified

B1: Stathmin 2 (protein microarray) (natural protein, human, UniProt Q93045-2 1-187, looked up)
chain: MAKTAMAYKEKMKELSMLSLICSCFYPEPRNINIYTYDDMEVKQINKRASGQAFELILKPPSPISEAPRTLASPKKKDLSLEEIQKKLEAAEERRKSQEAQVLKQLAEKREHEREVLQKALEENNNFSKMAEEKLILKMEQIKENREANLAAIIERLQEKLVKFISSELKESIESQFLELQREGEKQ
notes: human stathmin 2, recombinant soluble protein; also called STMN2; source: recombinant soluble protein produced at GNF, spotted on the microarray
Q: Does B1 bind?
A: Result: binds

B2: Chromosome two open reading frame 66 (protein microarray) (natural protein, human, UniProt Q6UXQ4 39-117, looked up)
chain: ATVRNEDKWKPLNNPRNRDLFFRRLQAYFKGRGLDLGTFPNPFPTNENPRPLSFQSELTASASADYEEQKNSFHNYLKG
notes: human C2orf66, recombinant soluble protein; also called C2orf66; source: recombinant soluble protein produced at GNF, spotted on the microarray
Q: Does B2 bind?
A: Result: binds
